The source of these data is patent US20130280279A1, “PHARMACEUTICAL COMPOSITION OF A COMPLEX OF AN ANTI-DIG ANTIBODY AND DIGOXIGENIN THAT IS CONJUGATED TO A PEPTIDE” (HOFFMANN-LA ROCHE INC., priority 2011, published 2013).

This assay has as its target human NPY2 receptor on HEK293/hNPY2R cells (human) (UniProt P49146). Briefly: cell-based or functional assay.

Take PYY(3-36) (peptide): the IC50 value of the cAMP assay (inhibition of Forskolin stimulated cAMP accumulation in HEK293/hNPY2R cells) worked out at 0.012 nM.
